T1: His-tagged dog HER3 protein (dHER3, SEQ ID NO: 45) (dog, UniProt P21860 20-642 (human entry))
T1 construct: not shown: His tag
T1 chain: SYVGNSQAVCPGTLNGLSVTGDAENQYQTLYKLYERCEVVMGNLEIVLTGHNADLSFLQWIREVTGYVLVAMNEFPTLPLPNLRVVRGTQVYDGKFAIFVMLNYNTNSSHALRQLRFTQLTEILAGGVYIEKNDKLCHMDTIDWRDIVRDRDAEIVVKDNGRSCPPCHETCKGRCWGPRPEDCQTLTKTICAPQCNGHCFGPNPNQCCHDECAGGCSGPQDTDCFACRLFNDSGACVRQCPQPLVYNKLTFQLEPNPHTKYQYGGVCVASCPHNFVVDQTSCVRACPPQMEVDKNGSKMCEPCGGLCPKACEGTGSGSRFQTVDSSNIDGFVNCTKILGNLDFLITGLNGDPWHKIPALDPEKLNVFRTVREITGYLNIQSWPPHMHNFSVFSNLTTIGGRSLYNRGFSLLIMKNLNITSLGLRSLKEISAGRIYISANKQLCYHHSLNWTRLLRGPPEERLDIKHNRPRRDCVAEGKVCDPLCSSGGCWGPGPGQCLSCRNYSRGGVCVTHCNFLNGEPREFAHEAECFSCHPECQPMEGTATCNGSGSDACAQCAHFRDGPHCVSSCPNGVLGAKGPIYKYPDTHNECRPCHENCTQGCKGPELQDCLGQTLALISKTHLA

T2: dog HER3 on CHO-dHER3 cells (dog, UniProt P21860 20-1342 (human entry))
T2 construct: CHO-S cells transfected with dHER3
T2 chain: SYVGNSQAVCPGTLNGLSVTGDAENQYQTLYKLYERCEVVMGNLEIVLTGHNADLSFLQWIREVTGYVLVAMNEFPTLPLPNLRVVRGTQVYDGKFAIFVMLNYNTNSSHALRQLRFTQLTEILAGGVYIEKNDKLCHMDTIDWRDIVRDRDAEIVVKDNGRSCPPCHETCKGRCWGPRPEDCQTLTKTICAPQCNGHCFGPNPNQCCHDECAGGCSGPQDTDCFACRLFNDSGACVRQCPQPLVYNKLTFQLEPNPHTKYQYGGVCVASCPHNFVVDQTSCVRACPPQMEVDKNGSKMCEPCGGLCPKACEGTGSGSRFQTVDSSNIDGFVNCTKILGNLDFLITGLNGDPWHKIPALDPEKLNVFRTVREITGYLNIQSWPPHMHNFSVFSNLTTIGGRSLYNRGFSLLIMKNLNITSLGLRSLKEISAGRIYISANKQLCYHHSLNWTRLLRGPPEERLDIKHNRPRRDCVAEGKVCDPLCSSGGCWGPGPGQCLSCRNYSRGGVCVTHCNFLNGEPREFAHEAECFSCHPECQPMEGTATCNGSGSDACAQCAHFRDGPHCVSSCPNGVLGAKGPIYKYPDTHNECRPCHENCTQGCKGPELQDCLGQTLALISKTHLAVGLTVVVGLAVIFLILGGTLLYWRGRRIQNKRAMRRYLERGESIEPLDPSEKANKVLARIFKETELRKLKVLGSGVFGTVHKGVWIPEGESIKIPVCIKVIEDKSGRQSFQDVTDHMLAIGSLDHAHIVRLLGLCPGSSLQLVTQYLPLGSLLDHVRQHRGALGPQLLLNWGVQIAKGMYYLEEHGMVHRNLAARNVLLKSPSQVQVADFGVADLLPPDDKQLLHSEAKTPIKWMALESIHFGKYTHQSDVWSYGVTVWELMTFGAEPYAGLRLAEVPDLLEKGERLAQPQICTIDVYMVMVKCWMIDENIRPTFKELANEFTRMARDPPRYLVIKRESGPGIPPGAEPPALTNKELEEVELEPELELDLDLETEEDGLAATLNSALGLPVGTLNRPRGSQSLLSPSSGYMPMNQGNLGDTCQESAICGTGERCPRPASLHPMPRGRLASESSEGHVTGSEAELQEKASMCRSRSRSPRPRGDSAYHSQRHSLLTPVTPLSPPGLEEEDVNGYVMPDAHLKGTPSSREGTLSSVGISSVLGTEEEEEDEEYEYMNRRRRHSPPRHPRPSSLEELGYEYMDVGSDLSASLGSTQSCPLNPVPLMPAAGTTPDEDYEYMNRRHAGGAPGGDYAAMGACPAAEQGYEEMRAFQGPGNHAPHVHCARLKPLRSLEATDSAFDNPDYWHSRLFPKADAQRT

T3: monkey (Macaca fascicularis) HER3 on CHO-fasHER3 cells (monkey (Macaca fascicularis), UniProt P21860 20-643 (human entry))
T3 construct: CHO-S cells transfected with fasHER3
T3 chain: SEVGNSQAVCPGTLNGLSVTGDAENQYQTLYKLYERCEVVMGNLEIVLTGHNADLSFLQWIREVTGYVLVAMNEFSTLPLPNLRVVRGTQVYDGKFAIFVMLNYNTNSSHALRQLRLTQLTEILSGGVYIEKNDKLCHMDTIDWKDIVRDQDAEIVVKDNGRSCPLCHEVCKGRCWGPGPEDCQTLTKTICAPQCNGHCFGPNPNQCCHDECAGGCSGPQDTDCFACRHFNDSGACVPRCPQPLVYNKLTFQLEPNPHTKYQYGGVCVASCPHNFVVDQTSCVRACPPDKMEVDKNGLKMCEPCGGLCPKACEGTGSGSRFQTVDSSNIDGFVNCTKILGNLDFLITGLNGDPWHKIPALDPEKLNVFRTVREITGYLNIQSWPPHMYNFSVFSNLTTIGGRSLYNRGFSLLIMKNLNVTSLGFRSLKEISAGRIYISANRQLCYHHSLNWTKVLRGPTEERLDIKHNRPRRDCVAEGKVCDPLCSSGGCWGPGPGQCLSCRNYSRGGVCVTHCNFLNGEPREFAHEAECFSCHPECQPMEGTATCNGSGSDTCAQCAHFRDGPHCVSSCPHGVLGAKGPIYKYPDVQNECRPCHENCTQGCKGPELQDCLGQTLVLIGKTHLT

T4: human HER4 (hHER4, ACRO Biosystems Inc., Cat #: ER4-H5221), recombinant His-tagged (human, UniProt Q15303 26-649)
T4 construct: Bought protein; not shown: His tag
T4 sequence (looked up): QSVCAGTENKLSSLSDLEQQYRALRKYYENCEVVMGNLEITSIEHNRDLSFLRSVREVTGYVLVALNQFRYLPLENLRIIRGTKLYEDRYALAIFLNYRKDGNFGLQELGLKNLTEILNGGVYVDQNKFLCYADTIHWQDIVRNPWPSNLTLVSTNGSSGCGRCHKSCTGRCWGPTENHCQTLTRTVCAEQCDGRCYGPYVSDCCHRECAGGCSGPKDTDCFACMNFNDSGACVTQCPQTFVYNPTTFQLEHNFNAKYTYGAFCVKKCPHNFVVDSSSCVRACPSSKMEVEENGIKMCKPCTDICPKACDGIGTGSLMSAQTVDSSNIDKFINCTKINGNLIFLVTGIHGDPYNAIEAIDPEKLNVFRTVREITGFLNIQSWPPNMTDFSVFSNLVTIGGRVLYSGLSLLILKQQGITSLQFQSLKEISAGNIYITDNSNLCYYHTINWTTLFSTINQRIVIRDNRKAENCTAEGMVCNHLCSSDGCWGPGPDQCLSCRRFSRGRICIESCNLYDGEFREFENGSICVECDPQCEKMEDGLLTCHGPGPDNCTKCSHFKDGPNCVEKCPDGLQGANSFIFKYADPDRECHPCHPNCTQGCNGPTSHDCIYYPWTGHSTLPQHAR


What was measured:
[1] = biological target: T5, His-tagged human HER3 protein (hHER3, ACRO Biosystems Inc., Cat #: ER3-H5223) (human, UniProt P21860 20-643); assay: SPR, Ab captured on Protein A
T5 construct: Bought protein; also called hHER3-His; not shown: His tag
Method: (§1) Purified anti-HER3 antibodies was captured on the Protein A chip (Series S Sensor Chip Protein A) for the detection. […] For ISO control, an antibody targeting an irrelevant target protein was used. The flow rate was 30 μL/min, the binding and dissociation time were set to 180 s and 400 s, respectively. The chip was regenerated after the last injection of each titration with a glycine solution (pH 2.0) at 30 μL/min for 30 seconds.
(§2) As a person of ordinary skill in the art would understand, the same method with appropriate adjustments for parameters (e.g., antibody concentration) was performed for each tested antibody.

[2] = biological target: T1, His-tagged dog HER3 protein (dHER3, SEQ …); assay: SPR, Ab captured on Protein A
Method: as §1, §2

[3] = biological target: T6, His-tagged monkey HER3 protein (fasHER3, Sino Biological, Inc., Cat #: 90043-K08H) (monkey); assay: SPR, Ab captured on Protein A
T6 construct: Bought protein
Method: as §1, §2

[4] = biological target: T7, mouse HER3 on CHO-mHER3 cells (mouse, UniProt Q61526 20-641); assay: flow cytometry, transfected CHO cells
T7 construct: CHO-S cells transfected with mHER3
Method: (§3) CHO-hHER3 cells, CHO-mHER3 cells, CHO-fasHER3 cells or CHO-dHER3 cells were transferred to a 96-well plate at a density of 5×10⁴ cells/well respectively. The anti-HER3 antibodies were added to the 96-well plate, and incubated at 4° C. for 30 min.

[5] = biological target: T8, human HER3 on CHO-hHER3 cells (human, UniProt P21860 20-643); assay: flow cytometry, transfected CHO cells
T8 construct: CHO-S cells transfected with hHER3
Method: as §3

[6] = biological target: T2, dog HER3 on CHO-dHER3 cells; assay: flow cytometry, transfected CHO cells
Method: as §3

[7] = biological target: T3, monkey (Macaca fascicularis) HER3 on …; assay: flow cytometry, transfected CHO cells
Method: as §3

[8] = biological target: T4, human HER4 (hHER4, ACRO Biosystems …); assay: SPR (Biacore 8K), antibody captured on Protein A chip, His-tagged hHER4 injected at 0-400 nM; response (RU) plotted against concentration [panel F]
Method: The cross binding activities of anti-HER3 antibodies to HER family proteins were determined by surface plasmon resonance (SPR) using Biacore (Biacore, INC, Piscataway N.J.) 8K biosensor equipped with pre-immobilized Protein A sensor chips.
Purified anti-HER3 antibodies were diluted to 2 μg/mL and then injected into the Biacore 8K biosensor at 10 μL/min for about 50 seconds to achieve a desired protein density (e.g., about 200 response units (RU)). […] The association phase lasted for 180 s and the dissociation phase lasted 400 s followed by a regeneration step with Glycine (pH 2.0, 30 μL/min for 30 seconds). For isotype control (ISO), an antibody targeting an irrelevant target protein was used.

T7 sequence (Q61526 20-641): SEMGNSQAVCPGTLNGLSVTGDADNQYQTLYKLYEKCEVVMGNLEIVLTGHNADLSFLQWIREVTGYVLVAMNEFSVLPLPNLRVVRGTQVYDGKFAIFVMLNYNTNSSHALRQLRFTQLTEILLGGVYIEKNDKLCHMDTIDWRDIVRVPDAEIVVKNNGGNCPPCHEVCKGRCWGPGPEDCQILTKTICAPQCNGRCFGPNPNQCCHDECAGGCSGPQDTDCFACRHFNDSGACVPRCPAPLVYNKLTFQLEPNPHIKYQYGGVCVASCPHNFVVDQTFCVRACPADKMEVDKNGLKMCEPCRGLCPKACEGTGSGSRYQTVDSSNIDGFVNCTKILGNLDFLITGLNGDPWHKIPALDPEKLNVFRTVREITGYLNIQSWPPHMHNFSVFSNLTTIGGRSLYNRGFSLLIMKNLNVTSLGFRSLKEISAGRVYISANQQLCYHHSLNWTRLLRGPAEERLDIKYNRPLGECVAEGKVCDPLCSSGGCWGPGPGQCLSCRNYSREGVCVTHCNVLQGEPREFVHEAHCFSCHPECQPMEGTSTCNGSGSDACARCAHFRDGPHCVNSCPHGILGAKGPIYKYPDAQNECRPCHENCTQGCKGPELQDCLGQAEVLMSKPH

| Kd [1] | koff [1] | kon [1] | Kd [2] | koff [2] | kon [2] | Kd [3] | koff [3] | kon [3] | Percentage of Positive Cells [4] | Percentage of Positive Cells [5] | Percentage of Positive Cells [6] | Percentage of Positive Cells [7] | binding result [8] | Binder |
| --- | --- | --- | --- | --- | --- | --- | --- | --- | --- | --- | --- | --- | --- | --- |
| 81.4 nM | 0.00769 s⁻¹ | 94500 M⁻¹ s⁻¹ | 77.4 nM | 0.0045 s⁻¹ | 58100 M⁻¹ s⁻¹ | 14.4 nM | 0.00098 s⁻¹ | 68000 M⁻¹ s⁻¹ | 58.9% | 68% | 38.1% | 62.9% | – | anti-HER3 antibody 1D6 (antibody, V domains shown, common light chain) VH: EVQLVQSGPGLVKPSETLSLTCTVSGGSISSNNYYWAWIRQPPGKGLEWIGSLYYTGRAYYKSSLKSRVTISVDTSNDQFSLRLTSVTAADTAIYYCARHDCGNTCLNWFDRWGQGTLVTVSS VL: not shown |
| – | – | – | – | – | – | – | – | – | – | – | – | – | no binding (tested: 400 nM) | Patritumab analog (antibody, V domains shown, also called positive control) VH: QVQLQQWGAGLLKPSETLSLTCAVYGGSFSGYYWSWIRQPPGKGLEWIGEINHSGSTNYNPSLKSRVTISVETSKNQFSLKLSSVTAADTAVYYCARDKWTWYFDLWGRGTLVTVSS VL: not shown |

— patent US20260250418A1 (BIOCYTOGEN PHARMACEUTICALS BEIJING, published 2026)
